From PMC10858482 come the findings set out here.

One may read the stoichiometry N as the number of molecules, sites or subunits per partner or assembly.

For the experiment, the target named is SARS-CoV-2 Omicron BA.1 spike protein (SARS-CoV-2 (Omicron BA.1)) (UniProt P0DTC2). The experiment is described as follows: cryo-EM structure; Tr67 and Omicron BA.1 spike mixed in a 1.5:1 weight ratio, 0.3 mg/ml; single-particle analysis, C3 symmetry, map at ~9 Å.

Regarding “SARS-CoV-2 Omicron BA.1 spike protein (from UniProt P0DTC2 14-1273) (natural protein)”, the stoichiometry N turned out to be 3.
